Data reported in US6919086B1, “Graminae pollen allergen mutants for specific immunotherapy, and production and use of the same” (Merck Patent Gesellschaft mit, priority 1997, dated 2005).
Like-named read-outs stand apart in the source and are kept apart here.

B1: r Phl p 5b: recombinant wild type Phl p 5b, 265 amino acids, SEQ ID NO 87 (protein)
chain: ADAGYAPATPAAAGAAAGKATTEEQKLIEDINVGFKAAVAAAASVPAADKFKTFEAAFTSSSKAAAAKAPGLVPKLDAAYSVAYKAAVGATPEAKFDSFVASLTEALRVIAGALEVHAVKPVTEEPGMAKIPAGELQIIDKIDAAFKVAATAAATAPADDKFTVFEAAFNKAIKESTGGAYDTYKCIPSLEAAVKQAYAATVAAAPQVKYAVFEAALTKAITAMSEVQKVSQPATGAATVAAGAATTAAGAASGAATVAAGGYKV
B2: n Phl p 5b: purified natural allergen Phl p 5b of timothy grass (Phleum pratense), reference of the EAST inhibition (protein)
chain: ADAGYAPATPAAAGAAAGKATTEEQKLIEDINVGFKAAVAAAASVPAADKFKTFEAAFTSSSKAAAAKAPGLVPKLDAAYSVAYKAAVGATPEAKFDSFVASLTEALRVIAGALEVHAVKPVTEEPGMAKIPAGELQIIDKIDAAFKVAATAAATAPADDKFTVFEAAFNKAIKESTGGAYDTYKCIPSLEAAVKQAYAATVAAAPQVKYAVFEAALTKAITAMSEVQKVSQPATGAATVAAGAATTAAGAASGAATVAAGGYKV

Experiments:
[1] = tested on: Phl p 5b-reactive T cell lines (TCLs) from allergic patients; assay: Proliferative reaction of Phl p 5b-reactive oligoclonal T cell lines ([3H]-thymidine incorporation); type: cell-based, human; conditions: secondary activator 0.3 μM
Protocol: In the second phase, oligoclonal T cell lines, which have been established by repeated stimulation with the relevant allergens, are employed for the testing. Once again, only those modified recombinant allergens which at least give rise to a stimulation index (SI) of 50% of the SI of the wild type are taken into consideration.
(§1) 40 ml of heparinized blood were obtained from each patient. Peripheral mononuclear cells (PBMC) were then isolated from this blood sample by means of the customary method using density gradient centrifugation. Analogous cell isolations were carried out at a later stage when it was necessary to obtain irradiated autologous antigen-presenting cells (APC) for characterizing the TCL and TCC further. After the PBMC had been counted, TCL which reacted to group 5 allergens in vitro were established as follows and as has already been described in detail elsewhere (Lit. 1): in each well of 24-well microculture plates, from 1.5 to 2.0×10^6 PBMC in 1 ml of culture medium (UltraCulture) were stimulated for 7 days in the added presence of natural Phl p5 allergens (in each case 10 μg/well) which had been purified by immunoaffinity chromatography. A total of from 8 to 10 of these cultures were set up. The isolation of Phl p5 by means of immunoaffinity chromatography has been described in detail (Lit. 2). At the end of the 7 days of culture, IL-2 (from 10 to 20 IU/well) was added to the cell cultures for a further 5 to 7 days. All the individual cultures were then pooled and the T cell blasts were enriched by means of density gradient centrifugation; the TCL which were obtained were then tested in a specific lymphocyte proliferation test (see Lit. 1 as well). For this, 2×10^4/ml TCL blasts were in each case cultured with 5×10^4/ml irradiated autologous APCs in triplicate samples in 96-well microculture plates. 10-20 μg of Phl p5 allergen were added as the specific antigen stimulus. After 56 hours of incubation, ^3H-labelled thymidine (1 μCi/well) was pipetted into the microcultures. After a further 16 hours, the radioactivity which had been incorporated into the proliferating T cell blasts was measured in a beta counter (Matrix 96). The results were calculated, as the arithmetic mean of the multiple samples, in counts per minute (cpm). The criterion for the quality of the TCL was the stimulation index, which was obtained by relating the cpm values with Phl p5 addition to those without Phl p5 addition.
The oligoclonal T cell lines (TCLs) from 8 patients who were allergic to grass pollen (see Ex. 1) were established by repeated activation with natural Ph1 p 5b (a+b) or recombinant rPh1 p 5b or 5a+5b.
The proliferative reaction of these TCLs was tested using the rPh1 p 5b mutants (FIG. 10).

[2] = tested on: Phl p 5b-reactive T cell clones (TCCs) from allergic patients; assay: Proliferative reaction of Phl p 5b-reactive T cell clones ([3H]-thymidine incorporation); type: cell-based, human; conditions: final concentration 0.3 μM
Protocol: as §1
After a TCL had been cloned (see below), the specificity of the isolated TCCs were determined as has just been described. Stimulation indices of at least 5 were rated as being positive for the TCCs. The determination of T cell epitopes for defining the T cell-reactive regions on group 5 allergens was also carried out using specific proliferation tests, with 1-2 μg of synthesized dodecapeptide/ml being used for this purpose in each case (see below).
The reactivity of the recombinant Ph1 p 5b mutants was tested on established T cell clones (TCCs) of known specificity. The TCCs derive from patients who are allergic to grass pollen (see Ex. 1) and are directed against the T cell-reactive regions A (FIG. 7), B (FIG. 8) and C (FIG. 9). The T cell reactivity was measured by stimulating the clones to proliferate.

[3] = tested on: IgE antibodies of allergic patients; assay: EAST inhibition test (IgE reactivity / allergenicity); type: binding, human; conditions: for IC50: read-out: Inhibition value 50% (concentration of the inhibitor at 50% inhibition); for Allergenic potency (Prel) 25%: relative to native Phl p 5b at 25% inhibition; for Allergenic potency (Prel) 50%: relative to native Phl p 5b at 50% inhibition
Protocol: The effects of the induced mutations on the allergenicity, i.e. the ability to bind to the IgE antibodies of allergic patients, of the modified recombinant allergens is determined qualitatively and quantitatively by means of the EAST inhibition test. […] The extent of the immunochemical relatedness (cross reactivity) can also be quantified. This EAST inhibition test only takes the reaction with IgE antibodies into account.
The binding of the allergens by the IgE antibodies is the basic prerequisite for the allergen-specific activation of the effector cells (mast cells, basophils, inter alia) in type I allergy. The allergen-specific inhibition of the enzyme/allergen sorbent test (EAST) is the best means for qualitatively and quantitatively recording the binding of the allergens to IgE anti-bodies. The EAST inhibition test is carried out as follows. Microtitre plates are coated with allergen (natural or recombinant Ph1 p 5 or Ph1 p 5b) (1 μg/ml). After the unbound allergen molecules have been removed by washing, non-specific plastic binding sites are blocked with bovine serum albumin (0.5%). […] from allergic patients, as a representative pool of 10-30 donors or as an individual serum, is incubated, in a suitable dilution, with the allergen-coated microtritre plates. The bound allergen-specific IgE antibodies are quantified using enzyme-coupled anti-IgE antibodies (e.g. alk. phosphatase-a-IgE antibodies). This binding is inhibited by soluble allergen or the substance to be tested (allergen mutants) in dependence on the concentration. The inhibition curve obtained with the purified natural allergen Ph1 p 5b is used as the reference.

[4] = allergic patient serum pool Bor 18/100
[5] = allergic patient serum pool We 6/97
[6] = individual allergic patient serum II/3
[7] = individual allergic patient serum II/12
[8] = individual allergic patient serum II/17

| Molecule | Inhibition value 25% (concentration of the inhibitor at 25% inhibition) [3, 4] [mol/L] | IC50 [3, 4] [nM] | Inhibition value 25% (concentration of the inhibitor at 25% inhibition) [3, 5] [mol/L] | IC50 [3, 5] [nM] | Inhibition value 25% (concentration of the inhibitor at 25% inhibition) [3, 6] [mol/L] | IC50 [3, 6] [nM] | Inhibition value 25% (concentration of the inhibitor at 25% inhibition) [3, 7] [mol/L] | IC50 [3, 7] [nM] | Inhibition value 25% (concentration of the inhibitor at 25% inhibition) [3, 8] [mol/L] | IC50 [3, 8] [nM] | Allergenic potency (Prel) 25% ([3]; individual serum II/3) | Allergenic potency (Prel) 25% ([3]; individual serum II/12) | Allergenic potency (Prel) 25% ([3]; individual serum II/17) | Allergenic potency (Prel) 25% ([3]; serum pool Bor 18/100) | Allergenic potency (Prel) 25% ([3]; serum pool We 6/97) | Allergenic potency (Prel) 50% ([3]; individual serum II/3) | Allergenic potency (Prel) 50% ([3]; individual serum II/12) | Allergenic potency (Prel) 50% ([3]; individual serum II/17) | Allergenic potency (Prel) 50% ([3]; serum pool Bor 18/100) | Allergenic potency (Prel) 50% ([3]; serum pool We 6/97) | also measured |
| --- | --- | --- | --- | --- | --- | --- | --- | --- | --- | --- | --- | --- | --- | --- | --- | --- | --- | --- | --- | --- | --- |
| B1 | 2e-10 | 5 | 3e-10 | 1400 | 5.6e-10 | 14 | 8.7e-10 | 73 | 2.1e-10 | 4.7 | 0.9030 | 0.597 | 1.045 | 1.709 | 1.697 | 0.4190 | 0.093 | 0.5450 | 0.8410 | 0.4400 | Incorporation of [3H]-thymidine into TCL 1 Wöl (stimulation index class) ([1]; primary stimulator n Phl p 5): + (1-2 (+)); Incorporation of [3H]-thymidine into TCL 2 Eic (stimulation index class) ([1]; primary stimulator n Phl p 5): + (1-2 (+)); Incorporation of [3H]-thymidine into TCL 3 Fre (stimulation index class) ([1]; primary stimulator n Phl p 5): + (1-2 (+)); Incorporation of [3H]-thymidine into TCL 4 Mer (stimulation index class) ([1]; primary stimulator n Phl p 5): + (1-2 (+)); Incorporation of [3H]-thymidine into TCL 5 17.4 (stimulation index class) ([1]; primary stimulator r Phl p 5): + (1-2 (+)); Incorporation of [3H]-thymidine into TCL 6 Mah (stimulation index class) ([1]; primary stimulator r Phl p 5a, r Phl p 5b): +++ (>10 (+++)); Incorporation of [3H]-thymidine into TCL 7 19.2 (stimulation index class) ([1]; primary stimulator r Phl p 5b): +++ (>10 (+++)); Incorporation of [3H]-thymidine into TCL 8 20.1 (stimulation index class) ([1]; primary stimulator r Phl p 5b): +++ (>10 (+++)); Incorporation of [3H]-thymidine into TCC CB 2 (stimulation index class) ([2]; T cell-reactive region A): +++ (>10 (+++)); Incorporation of [3H]-thymidine into TCC CB 14 (stimulation index class) ([2]; T cell-reactive region A): +++ (>10 (+++)); Incorporation of [3H]-thymidine into TCC JR 13 (stimulation index class) ([2]; T cell-reactive region A): +++ (>10 (+++)); Incorporation of [3H]-thymidine into TCC JR 15 (stimulation index class) ([2]; T cell-reactive region A): +++ (>10 (+++)); Incorporation of [3H]-thymidine into TCC DW8 (stimulation index class) ([2]; T cell-reactive region B): + (1-2 (+)); Incorporation of [3H]-thymidine into TCC UZH2 (stimulation index class) ([2]; T cell-reactive region B): +++ (>10 (+++)); Incorporation of [3H]-thymidine, stimulation index SI, 1st exp. ([2]; T cell-reactive region C): 11.0; Incorporation of [3H]-thymidine, stimulation index SI, 2nd exp. ([2]; T cell-reactive region C): 7.0; Incorporation of [3H]-thymidine, stimulation index SI, 3rd exp. ([2]; T cell-reactive region C): 5.5; Incorporation of [3H]-thymidine, stimulation index class (last column, no head) ([2]; T cell-reactive region C): ++ (5-10 (++)); EAST inhibition curve / inhibitory effect (in words) ([3]; serum pool Bor 18/100 (20 donors), FIG. 1): binding curves which are similar to that obtained with natural Ph1 p 5b |
| B2 | 3.3e-10 | 4.2 | 5.1e-10 | 6.1 | 5.1e-10 | 5.9 | 5.2e-10 | 6.8 | 2.2e-10 | 2.6 | 1.000 | 1.000 | 1.000 | 1.000 | 1.000 | 1.000 | 1.000 | 1.000 | 1.000 | 1.000 |  |
